Source: US20150231240A1, “ANTI-C16ORF54 ANTIBODIES AND METHODS OF USE THEREOF” (priority 2012, published 2015)
Where a chain is given by its changes, count along the chain named.

Columns and labels:
[1] = molecular target: T1, cynomolgus monkey C16orf54 (cynomolgus monkey (Macaca fascicularis), UniProt Q6UWD8 1-224 (human entry)); experiment: flow cytometry titration, F279-cyno-C16orf54 cells
T1 construct: also called cyno C16orf54; cyno-C16orf54
T1 chain: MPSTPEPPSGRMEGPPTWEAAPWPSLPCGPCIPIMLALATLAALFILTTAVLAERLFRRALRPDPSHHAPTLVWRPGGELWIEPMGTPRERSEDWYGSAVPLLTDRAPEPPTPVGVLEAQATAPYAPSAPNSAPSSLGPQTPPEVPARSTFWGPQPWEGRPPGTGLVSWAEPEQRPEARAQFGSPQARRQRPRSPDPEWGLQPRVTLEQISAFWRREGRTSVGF
Procedure: Anti-C16orf54 antibodies which bound to human C16orf54 were tested for their binding to cells expressing human C16orf54 and cells expressing cyno C16orf54. […] Median fluorescence intensities for each primary antibody concentration were used to derive a flow EC50/Kd using the one site-specific binding with Hill slope model in Prism (GraphPad Prism® Software). Results are shown as flow EC50 in Table 35.

human C16orf54 [2] = molecular target: T2, human C16orf54 (human, UniProt Q6UWD8 1-224); experiment: flow cytometry, KARPAS-1106P lymphoma cells (endogenous C16orf54), 1 repeat
T2 construct: also called huC16orf54; hC16orf54
T2 sequence: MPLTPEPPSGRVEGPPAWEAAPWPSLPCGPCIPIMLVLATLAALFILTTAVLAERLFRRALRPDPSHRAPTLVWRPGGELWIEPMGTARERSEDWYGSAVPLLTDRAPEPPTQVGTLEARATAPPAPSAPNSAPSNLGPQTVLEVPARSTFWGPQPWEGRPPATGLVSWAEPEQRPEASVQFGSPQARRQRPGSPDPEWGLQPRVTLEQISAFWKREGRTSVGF

human C16orf54 [3] = molecular target: T2, human C16orf54; experiment: flow cytometry, OCI-AML3 leukemia cells (endogenous C16orf54), 3 repeats
human C16orf54 [4] = molecular target: T2, human C16orf54; experiment: flow cytometry titration, KG1 cells (endogenous human C16orf54)
human C16orf54 [5] = molecular target: T2, human C16orf54; experiment: flow cytometry, WSU-DLCL2 lymphoma cells (endogenous C16orf54), 1 repeat
[6] = molecular target: T3, C16orf54 on peripheral blood and bone marrow mononuclear cells (Homo sapiens, UniProt Q6UWD8); experiment: Flow cytometry of PBMC and BMMC from healthy donors; format: binding
T3 construct: endogenous in cells; host or cells: PBMC and BMMC from healthy donors
T3 sequence (Q6UWD8 1-224): T2 sequence
Procedure: Anti-C16orf54 antibodies were tested for their binding to various cell lines and primary samples (e.g., AML, CLL, lymphoma) using flow cytometry. Copy number of C16orf54 on the various cell lines was determined. Peripheral blood mononuclear (PBMC) and bone marrow mononuclear (BMMC) cells from healthy donors were immunofluorescently stained using the antibodies of CD19, CD3, CD14, CD34, CD33, lineage markers, in addition to an anti-C16orf54 antibody and isotype control antibody, and then evaluated by flow cytometric analysis. […] In single lineage gated populations, C16orf54 is broadly expressed in CD19+ B cells, CD14+ monocytes, CD34+/lineage—progenitor cells and CD33+ myeloid cells, whereas CD3+ T cells have a distinctively low to undetectable level of C16orf54.

[7] = molecular target: T4, C16orf54 in cells and human tissues (Homo sapiens, UniProt Q6UWD8); experiment: Human C16orf54 immunohistochemistry (IHC); format: binding
T4 construct: from tissue; host or cells: isolated hematological tumour cells (lymphoma, AML, CLL) and human tissues, OCT-embedded frozen sections
T4 sequence (Q6UWD8 1-224): T2 sequence
Procedure: Anti-C16orf54 antibodies were used to detect C16orf54 expression as analyzed by immunohistochemistry (IHC). The transfected cell lines (5×10^7) and isolated hematological diseased cells were washed in PBS, centrifuged at 300 g for 10 minutes and the resultant cell pellets embedded and frozen in Tissue-Tek OCT compound (commercially available, e.g., Sakura Finetek USA, Inc., Torrence, Calif.; Fisher Scientific USA). 8 μm cryostat sections of the OCT embedded cells and human tissues were post-fixed in a 75% ethanol, 25% acetone mixture for 5 minutes followed by washing in PBS. The slides were then stained with exemplary primary anti-C16orf54 antibodies on a Dako Autostainer using standard avidin-biotin complex (ABC) IHC procedures. In some experiments, the endogenous peroxidase activity was blocked using Bloxall reagent (Vector SP-6000) for 5 minutes followed by avidin/biotin blocking reagents (Vector SP-2001) to block endogenous biotin within tissues. A pre-incubation with a protein blocker (Dako X0909) was performed followed by the primary antibodies incubation for 1 hour at room temperature. In some experiments, primary antibody 7-1C was diluted to a final concentration of 5 μg/ml and primary antibody 67-7A was diluted to a final concentration of 10 μg/ml using antibody diluent (Dako S3022). The control antibody used was a pan-mouse IgG antibody (Life Technologies 08-6599). In some experiments, after washing in PBS, the slides were incubated with a biotinylated horse anti-mouse antibody 1:200 (Vector BA-2001) for 30 minutes followed by a universal streptavidin-peroxidase conjugate (ABC-HRP Vector PK-6100) for 30 minutes. Diaminobenzedine was used as the chromagen (Sigma D5909) and the slides were counterstained with Mayers hematoxylin for 5 minutes, followed by dehydration and coverslipping.

B1: R29-7-1C (antibody, V domains shown)
VH: DVQLQESGPGLVKPSQSLSLTCTVTGYSITSDYAWNWIRQFPGNKLEWMGYISYSGSIRYNPSLKSRISITRDTSKNQFFLQLNSVTTEDTATYYCAREKYDNYYYAMDYWGQGTSVTVSS
VL: DIVMSQSPSSLAVSVGEKVTLSCKSSQNLLYSTNQKNYLAWYQQKPGQSPKLLIYWASTRESGVPDRFTGSGSGTDFTLTISSVKAEDLAVYYCQQYYSYRTFGGGTKLEIK
notes: Murine monoclonal IgG2a from a hybridoma
[1]
  EC50: 2.7 nM
Human C16orf54 [2]
  Average MFI fold change relative to isotype control: 10.5 fold
Human C16orf54 [3]
  Average MFI fold change relative to isotype control: 3 fold
Human C16orf54 [4]
  EC50: 0.3 nM
Human C16orf54 [5]
  Average MFI fold change relative to isotype control: 9.2 fold

B2: R29-7-1C: murine anti-C16orf54 monoclonal antibody, IgG2a; VH SEQ ID NO: 8, VL SEQ ID NO: 10 (antibody, V domains shown)
VH: MRVLILLWLFTAFPGILSDVQLQESGPGLVKPSQSLSLTCTVTGYSITSDYAWNWIRQFPGNKLEWMGYISYSGSIRYNPSLKSRISITRDTSKNQFFLQLNSVTTEDTATYYCAREKYDNYYYAMDYWGQGTSVTVSS
VL: MDSQAQVLMLLLLWVSGTCGDIVMSQSPSSLAVSVGEKVTLSCKSSQNLLYSTNQKNYLAWYQQKPGQSPKLLIYWASTRESGVPDRFTGSGSGTDFTLTISSVKAEDLAVYYCQQYYSYRTFGGGTKLEIK
modifications: R29-7-1C heavy chain variable region; R29-7-1C light chain variable region
[6]
  staining of PBMC and BMMC from healthy donors (C16orf54 expression): low but positive expression of C16orf54 with slightly higher level in BMMCs

B3: R29-67-7A: murine anti-C16orf54 monoclonal antibody, IgG2a; VH SEQ ID NO: 12, VL SEQ ID NO: 14 (antibody, V domains shown)
VH: B2 VH with S71N, S75R, I76T, K83N, I88L, K94T, K118N, N121Y, Y122E, Y123F
VL: B2 VL with D2E, L41M, T53S, S119I
modifications: R29-67-7A heavy chain variable region; R29-67-7A light chain variable region
[7]; AML sample AML-183L
  C16orf54 (67-7A) IHC: Positive
[7]; AML sample AML-205L
  C16orf54 (67-7A) IHC: Positive
[7]; AML sample AML-211L
  C16orf54 (67-7A) IHC: Positive
[7]; AML sample AML-213L
  C16orf54 (67-7A) IHC: Positive
[7]; CLL sample CLL-408L
  C16orf54 (67-7A) IHC: Positive
[7]; CLL sample CLL-BC042
  C16orf54 (67-7A) IHC: Positive
[7]; CLL sample CLL-BC043
  C16orf54 (67-7A) IHC: Positive
[7]; CLL sample CLL-UF048
  C16orf54 (67-7A) IHC: Positive
[7]; Lymphoma sample MD00402
  C16orf54 (67-7A) IHC: Positive
[7]; Lymphoma sample OD39986
  C16orf54 (67-7A) IHC: Positive
[7]; Lymphoma sample OD41079
  C16orf54 (67-7A) IHC: Positive
[7]; Lymphoma sample OD41411
  C16orf54 (67-7A) IHC: Positive
[7]; Lymphoma sample WD3517
  C16orf54 (67-7A) IHC: Positive
[7]; frozen sections, 10 μg/ml primary antibody
  IHC staining of hematological tumors: confirm the C16orf54 IHC expression in hematological tumors
